Source: patent US20240270846A1 (published 2024)
Changes are numbered by the printed parent chain. Numbers in names are those of the source.

B1: CE115HA000 D101F one-arm antibody (antibody, human IgG1, kappa, L234A L235A, N297A, name in Kabat numbering)
heavy: QVQLVESGGGVVQPGRSLRLSCAASGFTFSNAWMHWVRQAPGKGLEWVAQIKAKSNNYATYYAESVKGRFTISRDDSKNSLYLQMNSLKTEDTAVYYCRYVHYGAYYGVFAWGQGTTVTVSSASTKGPSVFPLAPSSKSTSGGTAALGCLVKDYFPEPVTVSWNSGALTSGVHTFPAVLQSSGLYSLSSVVTVPSSSLGTQTYICNVNHKPSNTKVDKKVEPKSCDKTHTCPPCPAPEAAGGPSVFLFPPKPKDTLMISRTPEVTCVVVDVSHEDPEVKFNWYVDGVEVHNAKTKPREEQYASTYRVVSVLTVLHQDWLNGKEYKCKVSNKALPAPIEKTISKAKGQPREPQVYTLPPSRCELTKNQVSLSCAVKGFYPSDIAVEWESNGQPENNYKTTPPVLDSDGSFFLVSKLTVDKSRWQQGNVFSCSVMHEALHNHYTQKSLSLSPDYKDDDDK
chain: EPKSSDKTHTCPPCPAPELLGGPSVFLFPPKPKDTLMISRTPEVTCVVVDVSHEDPEVKFNWYVDGVEVHNAKTKPREEQYNSTYRVVSVLTVLHQDWLNGKEYKCKVSNKALPAPIEKTISKAKGQPREPQVCTLPPSRDELTKNQVSLWCLVKGFYPSDIAVEWESNGQPENNYKTTPPVLDSDGSFFLYSKLTVDKSRWQQGNVFSCSVMHEALHNRYTQKSLSLSP
light: DIVMTQSPLSLPVTPGEPASISCRSSQSLVHSNRNTYLHWYQQKPGQAPRLLIYKVSNRFSGVPDRFSGSGSGTDFTLKISRVEAEDVGVYYCGQGTQVPYTFGQGTKLEIKRTVAAPSVFIFPPSDEQLKSGTASVVCLLNNFYPREAKVQWKVDNALQSGNSQESVTEQDSKDSTYSLSSTLTLSKADYEKHKVYACEVTHQGLSSPVTKSFNRGEC
notes: one-arm antibody
B2: CE115HA000 D101N one-arm antibody (antibody, human IgG1, kappa, L234A L235A, N297A, name in Kabat numbering)
heavy: B1 heavy with F110N
chain: B1 chain
light: B1 light
notes: one-arm antibody
B3: CE115HA000 G65E one-arm antibody (antibody, human IgG1, kappa, L234A L235A, N297A, name in Kabat numbering)
heavy: B1 heavy with G68E, F110D
chain: B1 chain
light: B1 light
notes: one-arm antibody
B4: CE115HA000 G98P one-arm antibody (antibody, human IgG1, kappa, L234A L235A, N297A, name in Kabat numbering)
heavy: B1 heavy with G104P, F110D
chain: B1 chain
light: B1 light
notes: one-arm antibody
B5: CE115HA000 D101P one-arm antibody (antibody, human IgG1, kappa, L234A L235A, N297A, name in Kabat numbering)
heavy: B1 heavy with F110P
chain: B1 chain
light: B1 light
notes: one-arm antibody
B6: CE115HA000 D101R one-arm antibody (antibody, human IgG1, kappa, L234A L235A, N297A, name in Kabat numbering)
heavy: B1 heavy with F110R
chain: B1 chain
light: B1 light
notes: one-arm antibody
B7: CE115HA000 D101G one-arm antibody (antibody, human IgG1, kappa, L234A L235A, N297A, name in Kabat numbering)
heavy: B1 heavy with F110G
chain: B1 chain
light: B1 light
notes: one-arm antibody
B8: CE115HA000 G65D one-arm antibody (antibody, human IgG1, kappa, L234A L235A, N297A, name in Kabat numbering)
heavy: B1 heavy with G68D, F110D
chain: B1 chain
light: B1 light
notes: one-arm antibody
B9: CE115HA000 D101Y one-arm antibody (antibody, human IgG1, kappa, L234A L235A, N297A, name in Kabat numbering)
heavy: B1 heavy with F110Y
chain: B1 chain
light: B1 light
notes: one-arm antibody
B10: CE115HA000 D101H one-arm antibody (antibody, human IgG1, kappa, L234A L235A, N297A, name in Kabat numbering)
heavy: B1 heavy with F110H
chain: B1 chain
light: B1 light
notes: one-arm antibody
B11: CE115HA000 D101M one-arm antibody (antibody, human IgG1, kappa, L234A L235A, N297A, name in Kabat numbering)
heavy: B1 heavy with F110M
chain: B1 chain
light: B1 light
notes: one-arm antibody
B12: CE115HA000 D101L one-arm antibody (antibody, human IgG1, kappa, L234A L235A, N297A, name in Kabat numbering)
heavy: B1 heavy with F110L
chain: B1 chain
light: B1 light
notes: one-arm antibody
B13: CE115HA000 D101K one-arm antibody (antibody, human IgG1, kappa, L234A L235A, N297A, name in Kabat numbering)
heavy: B1 heavy with F110K
chain: B1 chain
light: B1 light
notes: one-arm antibody
B14: CE115HA000 G98H one-arm antibody (antibody, human IgG1, kappa, L234A L235A, N297A, name in Kabat numbering)
heavy: B1 heavy with G104H, F110D
chain: B1 chain
light: B1 light
notes: one-arm antibody
B15: CE115HA000 G98D one-arm antibody (antibody, human IgG1, kappa, L234A L235A, N297A, name in Kabat numbering)
heavy: B1 heavy with G104D, F110D
chain: B1 chain
light: B1 light
notes: one-arm antibody
B16: CE115HA000 D101S one-arm antibody (antibody, human IgG1, kappa, L234A L235A, N297A, name in Kabat numbering)
heavy: B1 heavy with F110S
chain: B1 chain
light: B1 light
notes: one-arm antibody
B17: CE115HA000 G98A one-arm antibody (antibody, human IgG1, kappa, L234A L235A, N297A, name in Kabat numbering)
heavy: B1 heavy with G104A, F110D
chain: B1 chain
light: B1 light
notes: one-arm antibody
B18: CE115HA000 D101V one-arm antibody (antibody, human IgG1, kappa, L234A L235A, N297A, name in Kabat numbering)
heavy: B1 heavy with F110V
chain: B1 chain
light: B1 light
notes: one-arm antibody
B19: CE115HA000 D101I one-arm antibody (antibody, human IgG1, kappa, L234A L235A, N297A, name in Kabat numbering)
heavy: B1 heavy with F110I
chain: B1 chain
light: B1 light
notes: one-arm antibody
B20: CE115HA000 D101Q one-arm antibody (antibody, human IgG1, kappa, L234A L235A, N297A, name in Kabat numbering)
heavy: B1 heavy with F110Q
chain: B1 chain
light: B1 light
notes: one-arm antibody
B21: CE115HA000 G98K one-arm antibody (antibody, human IgG1, kappa, L234A L235A, N297A, name in Kabat numbering)
heavy: B1 heavy with G104K, F110D
chain: B1 chain
light: B1 light
notes: one-arm antibody
B22: CE115HA000 D101T one-arm antibody (antibody, human IgG1, kappa, L234A L235A, N297A, name in Kabat numbering)
heavy: B1 heavy with F110T
chain: B1 chain
light: B1 light
notes: one-arm antibody

biological target: T1, CD3 epsilon homodimer protein (UniProt P07766 23-126); assay: SPR (Biacore T200), CD3 epsilon homodimer on CM4 chip, one-arm antibody as analyte; ratio to unaltered CE115HA000;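 further: surface plasmon resonance run at 25 °C with HBS-EP+ as running buffer, CD3 epsilon homodimer attached by amine coupling, antibody passed over as analyte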
T1 construct: Construct of the homodimer protein is not described; also called CD3 (CD3 epsilon)
T1 sequence (P07766 23-126): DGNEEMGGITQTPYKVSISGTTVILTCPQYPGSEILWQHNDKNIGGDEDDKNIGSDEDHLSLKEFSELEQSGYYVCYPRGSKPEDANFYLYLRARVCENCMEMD

KD ratio (KD value of CE115HA000/KD value of the altered form) | Binder
0.73 | B1
2.28 | B2
0.61 | B3
0.88 | B4
43.4 | B5
5.66 | B6
3.16 | B7
0.61 | B8
0.97 | B9
0.91 | B10
1.94 | B11
0.71 | B12
4.37 | B13
1.14 | B14
2.36 | B15
0.91 | B16
0.98 | B17
1.18 | B18
1.73 | B19
3.55 | B20
4.85 | B21
0.62 | B22
